Legend:
human CTLA4-Ig [1] = molecular target: T1, human CTLA4-Ig (human, UniProt P16410 38-161); assay: competition ELISA on coated human CTLA4-Ig; reference murine CTLA4-26B
T1 construct: also called rhCTLA4IgG1Fc; not shown: immunoglobulin Fc part of the fusion; named IgG1Fc in rhCTLA4IgG1Fc and detected with anti-human Fc

human CTLA4-Ig [2] = molecular target: T1, human CTLA4-Ig; assay: calculated; method and form of CTLA4 not stated (Example 8, competition assays); humanized, IgG1 isotype
[3] = molecular target: CTLA4 on CTLA4-expressing CHO cells (human, UniProt P16410 36-223); assay: FACS competition on CTLA4-expressing CHO cells; competitor 125 ng FITC-labeled murine anti-CTLA4; unlabeled antibody 2000 ng to 100 ng
Description: The starting concentration of the unlabeled competitor was 2000 ng and was diluted 2-fold serially to 100 ng.

human CTLA4-Ig [4] = molecular target: T1, human CTLA4-Ig; assay: competition ELISA on plate-coated human CTLA4-Ig (10 ug/ml); cold competitor titrated against biotinylated murine CTLA4-26B; streptavidin-peroxidase, ABTS, O.D. 415 nm
Description: Plates were coated with human CTLA4-Ig (10 ug/ml) overnight, washed the next day and blocked with Superblock (Pierce) for 15 min at room temperature. Plates were washed three times with 1×PBS/0.1% Tween 20 and three times with 1×PBS.
100 ul of antibody mixtures was transferred to human CTLA4-Ig coated ELISA plate and rocked for 2 hours at room temperature. Plates were washed as described above and a secondary reagent (streptavidin peroxidase conjugate at 1:1000 dilution) in PBT buffer (1×PBS, 1% BSA, 0.1% Tween 20 was added. Plates were incubated for 1 hr at RT with shaking. Plates were washed as described above and developed for 10 minutes at room temperature with ABTS+H2O2 (100 ul/well) and the reaction was stopped with 2% oxalic acid (100 ul/well).

human CTLA4-Ig [5] = molecular target: T1, human CTLA4-Ig; assay: calculated; method and form of CTLA4 not stated (Example 8, competition assays); humanized, IgG4 isotype
human CTLA4-Ig [6] = molecular target: T1, human CTLA4-Ig; assay: calculated; method and form of CTLA4 not stated (Example 8, competition assays); humanized, IgG2m3 isotype
T45 = molecular target: T2, T45; assay: sandwich ELISA: antibody coated at 10 ug/ml, CHO supernatant with about 0.5 ug/ml CTLA4-Ig mutant, AP-goat anti-human Fc; blanks on the sheet: Mock 0.174, DME 0.183
T2 construct: one of 11 alanine mutants made by site-directed mutagenesis, used as CHO supernatant; also called CTLA4 point mutant T45; CTLA4-Ig T45A; not shown: the human Ig (Fc) part of the CTLA4-Ig fusion and its junction

E46 [7] = molecular target: T3, E46; assay: as above
T3 construct: one of 11 alanine mutants made by site-directed mutagenesis, used as CHO supernatant; also called CTLA4 point mutant E46; CTLA4-Ig E46A; not shown: human Ig Fc portion (with hinge or linker) of the CTLA4-Ig fusion

R85 = molecular target: T4, R85; assay: as above
T4 construct: one of 11 alanine mutants made by site-directed mutagenesis, used as CHO supernatant; also called CTLA4 point mutant R85; CTLA4-Ig R85A; not shown: human Ig Fc portion (with hinge or linker) of the CTLA4-Ig fusion

R38 = molecular target: T5, R38; assay: as above
T5 construct: one of 11 alanine mutants made by site-directed mutagenesis, used as CHO supernatant; also called CTLA4 point mutant R38; CTLA4-Ig R38A; not shown: human Ig Fc portion (with hinge or linker) of the CTLA4-Ig fusion

D63 = molecular target: T6, D63; assay: as above
T6 construct: one of 11 alanine mutants made by site-directed mutagenesis, used as CHO supernatant; also called CTLA4 point mutant D63; CTLA4-Ig D63A; not shown: human Ig Fc portion (with hinge or linker) of the CTLA4-Ig fusion

L61 = molecular target: T7, L61; assay: as above
T7 construct: one of 11 alanine mutants made by site-directed mutagenesis, used as CHO supernatant; also called CTLA4 point mutant L61; CTLA4-Ig L61A; not shown: the human Ig (Fc) part of the CTLA4-Ig fusion and its junction

D62 = molecular target: T8, D62; assay: as above
T8 construct: one of 11 alanine mutants made by site-directed mutagenesis, used as CHO supernatant; also called CTLA4 point mutant D62; CTLA4-Ig D62A; not shown: human Ig Fc portion (with hinge or linker) of the CTLA4-Ig fusion

I65 = molecular target: T9, I65; assay: as above
T9 construct: one of 11 alanine mutants made by site-directed mutagenesis, used as CHO supernatant; also called CTLA4 point mutant I65; CTLA4-Ig I65A; not shown: the human Ig (Fc) part of the CTLA4-Ig fusion and its junction

Q82 = molecular target: T10, Q82; assay: as above
T10 construct: one of 11 alanine mutants made by site-directed mutagenesis, used as CHO supernatant; also called CTLA4 point mutant Q82; CTLA4-Ig Q82A; not shown: human Ig Fc portion (with hinge or linker) of the CTLA4-Ig fusion

S64 = molecular target: T11, S64; assay: as above
T11 construct: one of 11 alanine mutants made by site-directed mutagenesis, used as CHO supernatant; also called CTLA4 point mutant S64; CTLA4-Ig S64A; not shown: human Ig Fc portion (with hinge or linker) of the CTLA4-Ig fusion

T67 = molecular target: T12, T67; assay: as above
T12 construct: one of 11 alanine mutants made by site-directed mutagenesis, used as CHO supernatant; also called CTLA4 point mutant T67; CTLA4-Ig T67A; not shown: human Ig Fc portion (with hinge or linker) of the CTLA4-Ig fusion

human CTLA4-Ig [8] = molecular target: T1, human CTLA4-Ig; assay: inhibition ELISA on plate-coated human CTLA4-Ig (10 ug/ml); antibody titrated, then biotin-CD86-Ig at 0.66 ug/ml as the blocked ligand; neutravidin-AP, ABTS
Description: ELISA were performed as described above with modifications. […] After washing, saturating concentrations of neutravidin-AP were added, and incubated for 1 hr at RT. Unbound neutravidin-AP was washed using PBS/1% BSA. The assay was developed using ABTS.

E46 [9] = molecular target: T3, E46; assay: sandwich ELISA: antibody coated at 10 ug/ml, CHO supernatant with CTLA4-Ig mutant, AP-goat anti-human Fc
Description: Mutant proteins were transiently expressed on CHO cells and supernatants harvested at 48 hrs. Supernatants containing CTLA4 mutant molecules were quantitated and standardized by ELISA. […] After incubation for 2 hrs at RT, plates were washed and incubated for 1 hr with AP-conjugated goat anti-human Fc specific IgG. The assay was developed as described above.

human CTLA4-Ig [10] = molecular target: T1, human CTLA4-Ig; assay: calculated; method and form of CTLA4 not stated (Example 8, competition assays); murine antibody
human CTLA4-Ig [11] = molecular target: T1, human CTLA4-Ig; assay: ELISA on plate-coated human CTLA4-Ig (10 ug/ml); serial dilutions of antibody, AP-goat anti-mouse, ABTS, OD 405 nm
Description: ELISA plates were incubated with 10 ug/ml human CTLA4-Ig overnight. Plates were washed with PBS/1% BSA and incubated with serial dilutions of primary antibody for 2 hrs at room temperature (RT). After washing, saturating concentrations of AP-conjugated goat anti-mouse antibody were added, and incubated for 1 hr at RT. Unbound goat antibodies were washed using PBS/1% BSA. The assay was developed using ABTS.

T1 sequence (P16410 other isoform, or with tags, fused parts or gaps limits assumed): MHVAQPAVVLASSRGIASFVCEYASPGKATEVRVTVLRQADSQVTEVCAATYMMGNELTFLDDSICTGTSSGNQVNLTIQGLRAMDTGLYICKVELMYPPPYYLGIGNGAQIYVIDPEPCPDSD
Chain of CTLA4 on CTLA4-expressing CHO cells (P16410 36-223 T147A limits assumed): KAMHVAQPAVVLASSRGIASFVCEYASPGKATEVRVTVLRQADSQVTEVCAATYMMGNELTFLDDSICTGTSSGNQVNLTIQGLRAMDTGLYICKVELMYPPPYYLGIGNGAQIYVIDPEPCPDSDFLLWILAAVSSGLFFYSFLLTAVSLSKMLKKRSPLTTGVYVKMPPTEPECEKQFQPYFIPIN

B1: humanized anti-CTLA4 antibody 26, IgG1 isotype (antibody, V domains shown)
VH: QVQLQESGPGLVKPSQTLSLTCTVSGFSLTSYGVYWVRQPPGKGLEWLGVIWAGGTTNYNSALMSRLTISKDTSKNQVSLKLSSVTAADTAVYYCARGPPHAMMKRGYAMDYWGQGTLVTVSS
VL: DIQMTQSPSSLSASVGDRVTITCSATSSITYMSWYQQKPGKAPKLLIYDTSNLASGVPSRFSGSGSGTDYTLTISSLQPEDFATYYCQQWSSYPLTFGGGTKVEIK
notes: Human IgG1 heavy constant region (pVgamma1 vector) and human kappa constant region (pVkappa vector); also called hCTLA4-26B IgG1; humanized anti-CTLA4 IgG1
B1 was tested. Which “fold difference in affinity against the murine antibody” value (human CTLA4-Ig [1]) did it give?
Its value is ≤ 10 fold.

What about the Kd (human CTLA4-Ig [2]) of the same binder?
Its Kd is ~2 nM.

What about the “fold difference in binding affinity against the murine antibody” value [3] of the same binder?
The value was ≤ 3 fold.

What about the “IC50 (read off the curve)” value (human CTLA4-Ig [4]) of the same binder?
The value was ~3 µg/mL.

B2: humanized anti-CTLA4 antibody 26, IgG4 isotype (antibody, V domains shown)
VH: QVQLQESGPGLVKPSQTLSLTCTVSGFSLTSYGVYWVRQPPGKGLEWLGVIWAGGTTNYNSALMSRLTISKDTSKNQVSLKLSSVTAADTAVYYCARGPPHAMMKRGYAMDYWGQGTLVTVSS
VL: DIQMTQSPSSLSASVGDRVTITCSATSSITYMSWYQQKPGKAPKLLIYDTSNLASGVPSRFSGSGSGTDYTLTISSLQPEDFATYYCQQWSSYPLTFGGGTKVEIK
notes: Human IgG4 heavy constant region (pVgamma4 vector) and human kappa constant region; also called hCTLA4-26B IgG4; PVkLC+PVg4HC
Which results are given for B2?
fold difference in affinity against the murine antibody (human CTLA4-Ig [1]): ≤ 10 fold; Kd (human CTLA4-Ig [5]): ~1.1 nM; IC50 (read off the curve) (human CTLA4-Ig [4]): ~3 µg/mL

B3: humanized anti-CTLA4 antibody 26, IgG2m3 isotype (antibody, V domains shown)
VH: QVQLQESGPGLVKPSQTLSLTCTVSGFSLTSYGVYWVRQPPGKGLEWLGVIWAGGTTNYNSALMSRLTISKDTSKNQVSLKLSSVTAADTAVYYCARGPPHAMMKRGYAMDYWGQGTLVTVSS
VL: DIQMTQSPSSLSASVGDRVTITCSATSSITYMSWYQQKPGKAPKLLIYDTSNLASGVPSRFSGSGSGTDYTLTISSLQPEDFATYYCQQWSSYPLTFGGGTKVEIK
notes: Human IgG2m3 (mutated IgG2) heavy constant region (pVgamma2m3 vector) and human kappa constant region; also called hCTLA4-26B IgG2m3; IgG2 m3 (2 mutated 3)
What does the source list for B3?
fold difference in affinity against the murine antibody (human CTLA4-Ig [1]): ≤ 10 fold; Kd (human CTLA4-Ig [6]): ~1.2 nM; IC50 (read off the curve) (human CTLA4-Ig [4]): ~3 µg/mL

B4: murine anti-human CTLA4 monoclonal antibody number 26 (antibody, V domains shown)
VH: QVQLKESGPGLVAPSQSLSITCTVSGFSLTSYGVYWVRQPPGKGLEWLGVIWAGGTTNYNSALMSRLSISKDNSKSQVFLKMSSLQTDDTAMYYCARGPPHAMMKRGYAMDYWGQGTSVIVSS
VL: QNVLTQSPAIMPASPGEKVTMTCSATSSITYMSWYQQKSGSSPRLLIYDTSNLASGVPVRFSGSGSGTSYSLTISRMEAEDAATYYCQQWSSYPLTFGAGTKLELK
notes: Mouse IgG1; also called antibody 26; antibody 26B
What does the source list for B4?
O.D. 450 nm (T45): 0.948; O.D. 450 nm (E46 [7]): 0.16; O.D. 450 nm (R85): 0.976; O.D. 450 nm (R38): 0.636; O.D. 450 nm (D63): 0.979; O.D. 450 nm (L61): 1.19; O.D. 450 nm (D62): 0.974; O.D. 450 nm (I65): 1.17; O.D. 450 nm (Q82): 1.07; O.D. 450 nm (S64): 1.1; O.D. 450 nm (T67): 0.944; IC50 (read off the curve) (human CTLA4-Ig [8]): ~0.6 µg/mL; binding result (E46 [9]): no binding; Kd (human CTLA4-Ig [10]): ~1.7 nM; EC50 (read off the curve) (human CTLA4-Ig [11]): ~0.05 µg/mL; IC50 (read off the curve) (human CTLA4-Ig [4]): ~3 µg/mL

From patent US20060165706A1 (GENETICS INSTITUTE, published 2006)
